Here are results for one substance from publication PMC6753332.

The test concerns the target neuropilin-1 (NRP1), wildtype, expressed on BW cells (human) (UniProt O14786). The test is described as follows: flow cytometry on cells; saturation: BW NRP1 cells with increasing concentrations of monomeric rh-C4Ad, detected with monoclonal C4d antibody and PE goat anti-mouse IgG; Langmuir isotherm for single-class 1:1 binding; apparent KD. For orientation: A flow cytometer gives signals particle by particle.

As for “recombinant human C4Ad (rh-C4Ad) (domain or fragment)”, the Kd came out at 710 nM.
